The values below come from PMC9499004, “Impact of G-Quadruplex Structures on Methylation of Model Substrates by DNA Methyltransferase Dnmt3a”.

For one data set, the target named is M.SssI (prokaryotic (species ), UniProt P15840 1-386). Nature of the data set: EMSA; 100 uM AdoHcy; 20 mM HEPES-NaOH pH 7.5, 100 mM KCl, 1 mM EDTA, 1 mM DTT, 100 uM AdoHcy, 25 C (EMSA: + 6% glycerol, 30 min, 60 nM DNA, gel at 4 C; FP: 10 nM DNA). Particulars: protein: recombinant; label: FAM; 30 bp duplex. (In general: A gel shift assay detects complexes by their altered migration in electrophoresis.)

Data set [1] concerns the target T1, AIR-Dnmt3a2 (autoinhibition removed) (murine, UniProt O88508-2 1-689, Y303A;Y305A). Nature of the data set: EMSA; 1 uM protein, 100 uM AdoHcy; no difference from 76Tf/95Bf-G4; 20 mM HEPES-NaOH pH 7.5, 100 mM KCl, 1 mM EDTA, 1 mM DTT, 100 uM AdoHcy, 25 C (EMSA: + 6% glycerol, 30 min, 60 nM DNA, gel at 4 C; FP: 10 nM DNA).
A further data set concerns the target Dnmt3a-CD (murine, UniProt O88508 608-908). Nature of the data set: EMSA; 1 uM protein, 100 uM AdoHcy; 20 mM HEPES-NaOH pH 7.5, 100 mM KCl, 1 mM EDTA, 1 mM DTT, 100 uM AdoHcy, 25 C (EMSA: + 6% glycerol, 30 min, 60 nM DNA, gel at 4 C; FP: 10 nM DNA). The following applies: protein: recombinant; tags: N-terminal 6xHis; chain copies: 2; label: fluorophore (FAM or TAMRA); no G4.

In data set [2] the target is T1, AIR-Dnmt3a2 (autoinhibition removed). Described as above.

M.SssI, sequence (P15840 whole entry): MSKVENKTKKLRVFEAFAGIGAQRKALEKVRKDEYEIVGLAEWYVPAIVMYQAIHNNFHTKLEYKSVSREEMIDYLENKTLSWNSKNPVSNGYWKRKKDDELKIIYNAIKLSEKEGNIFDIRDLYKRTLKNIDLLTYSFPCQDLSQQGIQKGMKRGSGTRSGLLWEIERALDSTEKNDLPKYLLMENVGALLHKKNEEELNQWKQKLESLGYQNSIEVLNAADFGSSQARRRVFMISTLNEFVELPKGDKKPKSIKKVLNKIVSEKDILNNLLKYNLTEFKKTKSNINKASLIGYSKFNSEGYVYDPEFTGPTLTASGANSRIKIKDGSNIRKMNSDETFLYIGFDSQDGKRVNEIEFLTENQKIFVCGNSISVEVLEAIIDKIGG

B1: 30Tf/30Bf (dsDNA)
DNA 1: CTGAATACTACTTGCGCTCTCTAACCTGAT
DNA 2: ATCAGGTTAGAGAGCGCAAGTAGTATTCAG
Take B1: the binding result in the data set with M.SssI is “binds”.

B2: 76Tf/76Bf (dsDNA)
DNA 1: TCCTTTCGCGCTTGGATCCTATGAGCGTTACTCGAGCATATGGCTCAGCTGCCAGGCACCAGTGTCAGCGTCCTAT
DNA 2: ATAGGACGCTGACACTGGTGCTTGGCAGCTGAGCCATATGCTCGAGTAACGCTCATAGGATCCAAGCGCGAAAGGA
Take B2: the binding result in data set [1] is reported as “binds”.
For AGGGAGTGAGTGAGTGAGTATA (ssDNA) [22(GAGT)4f], the binding signal (in the data set with Dnmt3a-CD; in data set [2]) was ~4 fold weaker than 19G4f throughout.
